Source: a protein production outcome set (Wang et al. 2014)

Assay: label from the status in PepcDB records

Sequence	protein production
SERNDIINFKALEKELQAALTADEKYKRENAAKLRAVEQRVASYEEFRGIVLASHLKPLERKDKMGGKRTVPWNCHTIQGRTFQDVATEISPEKAPLQPETSADFYRDWRRHLPSGPERYQALLQLGGPRLGCLFQTDVGFGLLGELLVALADHVGPADRAAVLGILCSLASTGRFTLNLSLLSRAERESCKGLFQKLQAMGNPRSVKEGLSWEEQGLEEQSGGLQEEERLLQELLELYQVD	not failed
SERRLGVRAWVKENRGSFQPPVCNKLMHQEQLKVMFIGGPNTRKDYHIEEGEEVFYQLEGDMVLRVLEQGKHRDVVIRQGEIFLLPARVPHSPQRFANTVGLVVERRRLETELDGLRYYVGDTMDVLFEKWFYCKDLGTQLAPIIQEFFSSEQYRTGKPIPDQLLKEPPFPLSTRSIMEPMSLDAWLDSHHRELQAGTPLSLFGDTYETQVIAYGQGSSEGLRQNVDVWLWQLEGSSVVTMGGRRLSLAPDDSLLVLAGTSYAWERTQGSVALSVTQDPACKKPLG	not failed
SEVRWCATSDPEQHKCGNMSEAFREAGIQPSLLCVRGTSADHCVQLIAAQEADAITLDGGAIYEAGKEHGLKPVVGEVYDQEVGTSYYAVAVVRRSSHVTIDTLKGVKSCHTGINRTVGWNVPVGYLVESGRLSVMGCDVLKAVSDYFGGSCVPGAGETSYSESLCRLCRGDSSGEGVCDKSPLERYYDYSGAFRCLAEGAGDVAFVKHSTVLENTDGKTLPSWGQALLSQDFELLCRDGSRADVTEWRQCHLARVPAHAVVVRADTDGGLIFRLLNEGQRLFSHEGSSFQMFSSEAYGQKDLLFKDSTSELVPIATQTYEAWLGHEYLHAMKGLLCDPNRLPPYLRWCVLSTPEIQKCGDMAVAFRRQRLKPEIQCVSAKSPQHCMERIQAEQVDAVTLSGEDIYTAGKKYGLVPAAGEHYAPEDSSNSYYVVAVVRRDSSHAFTLDELRGKRSCHAGFGSPAGWDVPVGALIQRGFIRPKDCDVLTAVSEFFNASCVPVNNPKNYPSSLCALCVGDEQGRNKCVGNSQERYYGYRGAFRCLVENAGDVAFVRHTTVFDNTNGHNSEPWAAELRSEDYELLCPNGARAEVSQFAACNLAQIPPHAVMVRPDTNIFTVYGLLDKAQDLFGDDHNKNGFKMFDSSNYHGQDLLFKDATVRAVPVGEKTTYRGWLGLDYVAALEGMSSQQC	not failed
SGGGGKAWPTHVVCSDSGLEVLYQSCDPLQDFGFSVEKCSKQLKSNINIRFGIILREDIKELFLDLALMSQGSSVLNFSYPICEAALPKFSFCGRRKGEQIYYAGPVNNPEFTIPQGEYQVLLELYTEKRSTVACANATIMCS	failed
SGHFSALPSLPVGSHAKVSSPQPRGPRYAEGTFISDYSIAMDKIHQQDFVNWLLAQKGKKNDWKHNITQREARALELASQANRKEEEAVEPQSSPAKNPSDEDLLRDLLIQELLACLLDQTNLCRLRSR	failed
SGNTTSERVSGERHGAKAARAEGGGHGPGKEHKIMVGSTDDPSVFSLPDSKLPGDKEFVPWQQDLDDSVKPTQQARPTVIRWSEGGKEVFISGSFNNWSTKIPLIKSHNDFVAILDLPEGEHQYKFFVDGQWVHDPSEPVVTSQLGTINNLIHVKKSDFEVFDALKLDSMESSETSCRV	failed
SGRKRLITDSYPVVKRREGPAGHSKGELAPELGEEPQPRDEEEAELELLRQFDLAWQYGPCTGITRLQRWCRAKHMGLEPPPEVWQVLKTHPGDPRFQCSLWHLYPL	failed
SGSEPTKVMVAVNASTIKDYPNPSISCKRAFEWTLEKIVRSNTSDFKILLLHVQVVDEDGFDDVDSIYASPEDFRDMRQSNKAKGLHLLEFFVNKCHEIGVGCEAWIKTGDPKDVICQEVKRVRPDFLVVGSRGLGRFQKVFVGTVSAFCVKHAECPVMTIKRNADETPSDPADD	not failed
SIDLRLQYLATRELRNAIAEQDAKAGSLVIMDVKTGEVLAMVNQPTYNPNNRRSMFPAAMRNRAIIDVFEPGSTVKPISMSAALQSGRWKPTDKVEVYPGSLQIGRYTIKDVSRSEGPILDLTGILINSSNVGMSKIAFDIGGEAIYRVMSQVGLGQYTGLGFPGERVGNLPNHREWRKAETATLSYGYGVSVTALQLVHAYAALANDGKMVPLSIIKVDKTPEAVQAIPKEVAETVQGMLQQVIEAPRGVFRAQVPFYHVAGKSGTARKATVGAKGYTENAYRSLFAGFGPMSDPRYAIVVVIDEPRKGGYFGGLVSAPVFSNVMSGTLRLMNVPPDNLPPPAPAPAVPSQVNAAAAKGGRG	failed
SIKENSYFAGGVKSLGFNQHGQDVSVGVMLPGEYTFGTQAPERMTVVKGALVVKRVGEADWTTYSSGESFDVEGNSSFELQVKDATAYLCEYL	not failed
SILKIEKVLKRMREIKNELLQAQNPSELYLSSKTELQGLIGQLDEVSLEKNPCIREARRRAVIEVQTLITYIDLKE	not failed
SIVIIFNPNSTGDAPELAQQLHGKLKELLTYQPEITLQPTEHAGHAVDLAREAASKGGDVLVVSVSGDGGYNEVVNGVMQADNPRAVAAVLAAGNANDHSRIIGTKPLEEAIAEGRVHNIDLLRIHTG	failed
SKAWLHQYSVVGRKIPTQEEPEPPIYRLKIFAPNVVNAKSRFWYFLRKLKRVKKSSGEILNISEIFEKKSTQVKNYGIWIRYKSRSDTINMYREYRDVTVNGAVEQMYKDMSGRHRARWSSIWVLKAMPVAAKDCRRSKVTQFHDSKIKFALPHMRPRAPLKKYNTPFKAKRPTTIVQ	not failed
SKELKVLVLCAGSGTSAQLANAINEGANLTEVRVIANSGAYGAHYDIMGVYDLIILAPQVRSYYREMKVDAERLGIQIVATRGMEYIHLTKSPSKALQFVLEHYQ	not failed
SKKVIGKKRAHAEDDELDPMDPSSYSDAPRGGWVVGLKGVQPRAADTTASGPLFQQRPYPSPGAVLRRNAEVASSQKKKPNSQFTEITKRGDGSDGLGDAD	failed
SKQKLVLASGSPRRLELLHQIGIEPARLMPMDIDETPVKLEHPRTLCRRLSQQKAEAAQAALKSEQAWKDAYVLGSDTVVAVGRRIVGKAEYTEEASAALHLLSGRSHWVYTGICLVTPDGKIRQKVAETKVRFKRLSTREIDAYIASGQWRGKAGAYGIQGIAGAFVQKLTGSYTNVVGLPLYETMSLLSGEGFEV	failed
SKSNKIFVGGIPHNCGETELREYFKKFGVVTEVVMIYDAEKQRPRGFGFITFEDEQSVDQAVNMHFHDIMGKKVEVKRAEPRDSKS	not failed
SLDVQRVGKAGLHRVDSKKQQTAAGVSFSEVMGKQRDEKAYERLQALMSKIDDQGKLLSETRTIEELRKYKELVKEFVGDAVELGLRLEERRGFNRRGRTKIYKIVKEVDRKLLDLTDAVLAKEKKGLDILNMVGEIKGLLINIYA	not failed
SLENVLASHSKMQGALEKVQIELGRRDSEIAGLKKERDLNQQRVQKLEAEVDQWQARMLVMEDQHNSEIESLQKALGVAREDNRKLAMSLEQALQTNNHLQTKLDHIQEQLESKELERQNLETFKDRMTEESKVEAELHAERIEALRKQFQTERETTKKVAQREVAELKKALDEANFRSVEVSRTNRELRQKLAELEKILESNKEKIKNQKTQIKLHLSAKANNAQNIERMKVVWETSSHFLDTL	not failed
SLERSVNGKIQKADIFSVPVSFNASEVKHVDTPQEALAASLNKFGEVNLEYMENLSEIDIQELLKQLDTRIFYNPMMKNYEIKDRFIAGNVVAKAEWIENYLKDYPDDDASRKSLEALRKAIPEPISFELLDFNLGERWIPMSVYEEFAGYLFETKAHIHYTESIDEFSVNFESTNANITDRYYVKGEKRGYYGNDLLKHALHNTVPDITKTVQDEEGNDIKVRDAEAIQLADAKINEIRSAFTGWLNEQLPEFKQNLADMYNRKFNCYVRPDYDGSLQSFPFLDLKGLGIPNLYDSQ	failed
SLKLAKNVEIEIRTKIHPTESEDKVLKAIRNIFPDAEIEISEEGEVYGRAYSLDRFRELLRKQRILDTARSEILKGRNGKEVTIYLNKQTATVSRINFCDENAVLSPIKVTFRLNNIPFSRFLDYIAPETKDGRPVKEIDKL	not failed
SLKLFLFEFATCGERIEDSTAVEGLAMFKSAFDGFKNYYEITGFVRPEFSCLFTLPVDSMDSMEKYLEKSDAFLIIAPEDDFLLYTLTKKAEKYCENLGSSSRAIAVTSDKWELYKKLRGEVQVPQTSLRPLDCKFIIKPRTACAGEGIGFSDEVPDGHIAQEFIEGINLSVSLAVGEDVKCLSVNEQIINNFRYAGAVVPARISDEVKREVVEEAVRAVECVEGLNGYVGVDIVYSDQPYVIEINARLTTPVVAFSRAYGASVADLLAGGEVKHVRRQMVRKSKSAEKPYVSVGDYTLEIIDLD	not failed
SLNEGQEMEEQFALLLETLKNQQMNEFRELFLALHIYEQGQFYQSLDEKDRQHLYNYLSPKELADMFDVIEEDNENMKDYLAEMRPSYAADMLAEMYTDNAVDLLNMLDKSQKAKYLSLLSSEEAGEIKELLHYEDETAGAIMTTEFVSIVANQTVRSAMYVLKNQADMAETIYYVYVVDQENHLVGVISLRDLIVNDDDTLIADILNERVISVHVGDDQEDVAQTIRDYDFLAVPVTDYDDHLLGIVTVDDIIDVIDDEAASDYSGLAGVDVEEVSENPLKAASK	not failed
SLPHCETLLLEPIEGVLRITLNRPQSRNAMSLAMVGELRAVLAAVRDDRSVRALVLRGADGHFCAGGDIKDMAGARAAGAEAYRTLNRAFGSLLEEAQAAPQLLVALVEGAVLGGGFGLACVSDVAIAAADAQFGLPETSLGILPAQIAPFVVRRIGLTQARRLALTAARFDGREALRLGLVHFCEADADALEQRLEETLEQLRRCAPNANAATKALLLASESGELGALLDDAARQFAEAVGGAEGS	failed
SLRKERARSAEEPWTQNQQKLLELALQQYPRGSSDCWDKIARCVPSKSKEDCIARYKLLV	not failed
SLTSKNQFYKPGMLVPVFSAAGLLKNGRYQFLLQQIETLSLLPTEQYAQLYEALVYRFVEFVQVLPIRLDEPLCSLMNEGLLRGVNSLNHYIQNHPEATPLERYALFSAGLLLEVAHAVVNQKIFITDEEGNFIKQWNPFSGPLIDDVETKHYKIMPLSSYYQRNIPSITPILVRQLLPDEGFLWLTSDMRVFSDWMQALRDDEGEGGGRFEHVLQLFKHKNIDGLFNTLPALPVNLQDSPATAHADAFLNWLKEALATNQIKVNTSDAGVHVIPEGVFLEKTGIFKQYIDLHVNVPVNLFTVYQQFGNLFGLTKLSGIDYRFEQLFSEYPDALKRKSKMGFAGLIGIRRASPTREGVLIADPNLIFTRGEIPSATSYLKLSSAQKSQNIPMT	not failed
SNQDITQPTAIIAVVGVGAEQGIGAAVCRRFAQEKFKVYVAGRTLNKVEKVAAAIHRQGGQAVAYVLDAENEQQLQTLFDHLNDQPEALAAVIHNVGGNIPSIFLQSSLKFFSQMWRSTFLSSVLVAQRSLSIFQKQQQGTLIFTGASASLRGKPFFAAFSMGKSALRSYALNLAELYRSQNIHVAHVMVDGMVDGDRVNKALWGLGRLARLTRGTGGLNIDAIAENYWMLYQQNVDLWT	failed
SNRMTEMHVCLADAIQKDNRPEISNRLFRSNAVEKEILRVQKLLKNAKLAWMFTNCFPNTLDTTVHFRKGSDGKPDTFVYTGDIHAMWLRDSGAQVWPYVQLANSDPELKEMLAGVILRQFKCINIDPYANAFNDGAIPDGHWMSDLTDMKPELHERKWEIDSLCYPLRLAYHYWKTTGDASIFNEEWIQAITNVLKTFKEQQRKDGVGPYKFQRKTERALDTVSNDGLGAPVKPVGLIVSSFRPSDDATTLQFLVPSNFFAVSSLRKAAEILEKVNKKTALSKECKDLAQEVETALKKYAVYNHPKYGKIYAFEVDGFGNHHLMDDANVPSLLAMPYLGDVNVNDPIYQNTRRFVWSEDNPYFFKGKAGEGIGGPHIGYDMVWPMSIMMKAFTSQNDAEIKTCIKMLMDTDAGTGFMHESFHKDNPKKFTRAWFAWQNTLFGELILKLVNEGKVDLLNSIQ	not failed
